Assay results as given in patent US20170100463A1, “METHOD TO IMPROVE SAFETY AND EFFICACY OF ANTI-CANCER THERAPY” (CLS Therapeutics Limited, priority 2014, published 2017).

Key:
L1210 leukemia cells = assay: Survival of mice transplanted with L1210 leukemia cells; format: in vivo, DBA2 mice; settings: AraC 1000 mg/kg IP Days 2, 5, 8; DNase II 15 or 45 mg/kg/day IP; alone or combined
Procedure: Treatment with DNase and AraC was initiated on Day 1 of experiment. Cytosine arabinoside (AraC; Cytosar; Pfizer) was injected IP at a dose of 1000 mg/kg on Days 2, 5 and 8. The injected doses were considered adequate for the model and injection route based on prior experiments (13-14). DNase II (Wornington) was injected IP at doses of 15 mg/kg/day and 45 mg/kg/day on Days 1, 3, 5, 8, 10, 12, 15, 17, and 19.
Animals were randomized into 6 experimental groups of 6 mice per group as follows: • 1. Group I: negative control (no treatment); • 2. Group II: positive control (animals treated with AraC); • 3. Group III: animals treated with AraC and 15 mg/kg DNase; • 4. Group IV: animals treated with AraC and 45 mg/kg DNase; • 5. Group V: animals treated with 15 mg/kg DNase, no AraC; • 6. Group VI: animals treated with 45 mg/kg DNase, no AraC.

[1] = Cyclophosphamide-induced neutropenia, white blood cell count; format: in vivo, BALB/C mice; settings: mice, cyclophosphamide 200 mg/kg IP Day 1; for early phase decline in WBC count (FIG. 3): DNase I 25 mg/kg/day IV or GM-CSF 200 μg/kg/day SC Days 2-5
Procedure: 30 female 10-12 week old BALB/C mice (obtained from Rappolovo animal house) were used in this experiment. […] On Day 1, neutropenia was induced by a single IP injection of 200 mg/kg cyclophosphamide (Cyclophosphanum-LANS) in 200 μl of WFI. Starting on Day 2, mice were then treated as follows: • 1. Group I (n=10): control (no treatment); • 2. Group II (n=10): animals were treated with human recombinant DNase I (Pharmsynthez OJSC) at 25 mg/kg/day (50000 KU/kg/day) dose injected IV on Days 2-5; • 3. Group III (n=10): animals were treated with human recombinant GM-CSF (Neostim, Pharmsynthez OJSC) at 200 μg/kg/day dose injected subcutaneously (SC) on Days 2-5.
The white blood cell count (WBC) in each animal was monitored daily during the 10 day experiment using blood cell counter.

in vivo = assay: in vivo
Excerpt: Group I: control group (no Doxorubicin, no DNase); • 2.
Animals were monitored during 2 weeks from the beginning of experiment for survival and weight.

[2] = Gastrointestinal lesions after Etoposide/5-FU chemotherapy in rats; format: in vivo, male Wistar rats; settings: for Total number of lesions per group: 16 rats; for Total number of lesions per group / Number of lesion free animals (percent) / Median number of lesions / Number of lesion free animals: Etoposide 200 mg/kg + 5-FU 400 mg/kg per os; for Total number of lesions per group / Median number of lesions: 36 hours; for Number of lesion free animals: of 16 rats
Procedure: Animals were divided into 4 groups of 16 rats each. Two hours after the Etoposide/5-FU challenge, rats were treated as follows: • 1. Group I: IV placebo (WFI); • 2.

[3] = Myocardial necrosis area in deceased rats challenged with doxorubicin; format: in vivo; settings: doxorubicin 7.5 mg/kg, DNase I 15 mg/kg daily IP vs placebo
Procedure: FIG. 1 is a bar graph showing myocardial necrosis area in deceased rats challenged with sub-lethal IV doses of doxorubicin (7.5 mg/kg) and either daily IP injections of human recombinant DNase I (15 mg/kg) (black bar) or daily IP injections of placebo (WFI) (diagonal hatched bar). Serial myocardium microscopy samples from each heart were analyzed using an automated video analyzer to quantify the necrotic areas. The sum of necrotic area (Sna; nm^2) was calculated as a sum of necrotic areas in 30 serial slides from each individual autopsied heart (n=3 for DNase I-treated rats—black bar; n=5 for placebo-treated rats—diagonal hatched bar).
The hearts deceased rats challenged with sub-lethal doses of doxorubicin (7.5 mg/kg) from (Groups IV and V) were autopsied. Serial myocardium microscopy samples from each heart were analyzed using an automated video analyzer to quantify the necrotic areas. The sum of necrotic area (Sna; nm^2) was calculated as a sum of necrotic areas in 30 serial slides from each individual autopsied heart (n=3 for Group IV (FIG. 1, black bars); n=5 for Group V (FIG. 1, diagonal hatched bars)). Group IV received daily IP injections of human recombinant DNase I at 15 mg/kg dose, while Group V received daily IP injections of placebo (WFI).

Erlich carcinoma cells = assay: Erlich carcinoma ascites tumor with radiotherapy: survival and body weight
Procedure: Radiotherapy was performed using a cobalt-60 teletherapy machine. The abdominal fields of the mice were treated by external irradiation. The fractionation was 200 cGy per day for 5 days. Mice were divided into 6 groups treated as follows: Group 1: radiotherapy only (external irradiation 200 cGy per day for 5 days); Group 2: recombinant human DNAse I (Pharmsynthez) 20 mg/kg/day administered intramuscularly in 2 daily doses; Group 3: recombinant human DNAse I (Pharmsynthez) 40 mg/kg/day administered intramuscularly in 2 daily doses; Group 4: radiotherapy (external irradiation 200 cGy per day for 5 days) plus recombinant human DNAse I (Pharmsynthez) 20 mg/kg/day administered intramuscularly in 2 daily doses; Group 5: radiotherapy (external irradiation 200 cGy per day for 5 days) plus recombinant human DNAse I (Pharmsynthez) 40 mg/kg/day administered intramuscularly in 2 daily doses. Group 6 was a control group receiving placebo (water for injection).

[4] = Doxorubicin 7.5 mg/kg/day IV 5 days + DNase I 15 mg/kg/day IP (Group IV) or placebo (Group V)
[5] = Doxorubicin 10.0 mg/kg/day IV 5 days + DNase I 15 mg/kg/day IP (Group VI) or placebo (Group VII)
[6] = rats, Doxorubicin 7.5 mg/kg/day IV 5 days + DNase I 15 mg/kg/day IP (Group IV) or placebo (Group V), monitored 2 weeks
[7] = rats, Doxorubicin 10.0 mg/kg/day IV 5 days + DNase I 15 mg/kg/day IP (Group VI) or placebo (Group VII), monitored 2 weeks
[8] = Group 2: DNAse I 20 mg/kg/day intramuscularly, no radiotherapy
[9] = Group 3: DNAse I 40 mg/kg/day intramuscularly, no radiotherapy
[10] = Group 4: radiotherapy 200 cGy per day for 5 days plus DNAse I 20 mg/kg/day intramuscularly
[11] = Group 5: radiotherapy 200 cGy per day for 5 days plus DNAse I 40 mg/kg/day intramuscularly

With `Nc1ccn([C@@H]2O[C@H](CO)[C@@H](O)[C@@H]2O)c(=O)n1` [AraC, cytosine arabinoside] the “survival after implantation of L1210 leukemia cells (FIG. 4)” value (L1210 leukemia cells) was “better survival rates versus non-treated mice”.

For “GM-CSF: human recombinant GM-CSF (Neostim, Pharmsynthez OJSC)”, the “early phase decline in WBC count (FIG. 3)” value [1] was “not able to prevent it”.

With `COc1cccc2c1C(=O)c1c(O)c3c(c(O)c1C2=O)C[C@@](O)(C(=O)CO)C[C@@H]3O[C@H]1C[C@H](N)[C@H](O)[C@H](C)O1` [Doxorubicin, reference compound] the “Median survival of deceased rats” value (in vivo; [4]) was 8.2 ± 1.0 days, the “Median survival of deceased rats” value (in vivo; [5]) was 6.6 ± 0.9 days and the “Median survival of deceased rats” value (in vivo; male, Wistar, rat, in vivo) was 12 ± 2.1 days. For the same molecule, the “Number of dead/out of total in group” value (in vivo; male, Wistar, rat, in vivo) was 3/6, the LD50 at 2 weeks (in vivo; male, Wistar, rat, in vivo, iv) was 3.75 mg/kg and the “Number of dead/out of total in group” value (in vivo; [6]) was 5/6. The “Number of dead/out of total in group” value (in vivo; [7]) was 6/6.

In the case of `CN/C(=N/CCSCc1nc[nH]c1C)NC#N` [Cimetidine, cimetidine, reference compound], the “Total number of lesions per group” value ([2]; treatment 50 mg/kg IV) is reported as 40, the “Number of lesion free animals (percent)” value ([2]; treatment 50 mg/kg IV) is reported as 62.5% and the “Median number of lesions” value ([2]; treatment 50 mg/kg IV) is reported as 2.5 ± 1.1. For the same molecule, the “Number of lesion free animals” value ([2]; treatment 50 mg/kg IV) was 10.

B1: human recombinant DNase I: human recombinant DNase I (Pharmsynthez OJSC), deoxyribonuclease enzyme (protein, UniProt P24855 23-282, looked up)
Deoxyribonuclease-1: LKIAAFNIQTFGETKMSNATLVSYIVQILSRYDIALVQEVRDSHLTAVGKLLDNLNQDAPDTYHYVVSEPLGRNSYKERYLFVYRPDQVSAVDSYYYDDGCEPCGNDTFNREPAIVRFFSRFTEVREFAIVPLHAAPGDAVAEIDALYDVYLDVQEKWGLEDVMLMGDFNAGCSYVRPSQWSSIRLWTSPTFQWLIPDSADTTATPTHCAYDRIVVAGMLLRGAVVPDSALPFNFQAAYGLSDQLAQAISDHYPVEVMLK
For B1, the “Median survival of deceased rats” value (in vivo; [4]) was 10.3 ± 1.4 days, the “Median survival of deceased rats” value (in vivo; [5]) was 6.2 ± 1.0 days and the “Body weight of surviving rats, Baseline” value (in vivo; rat, in vivo) was 168 ± 4 grams. The “Body weight of surviving rats, Day 4” value (in vivo; rat, in vivo) was 160 ± 6 grams, the “Body weight of surviving rats, Day 7” value (in vivo; rat, in vivo) was 158 ± 5 grams and the “Body weight of surviving rats, Day 14” value (in vivo; rat, in vivo) was 164 ± 6 grams. The “Median survival of deceased rats” value (in vivo; rat, in vivo) was 7 days, the “Number of dead/out of total in group” value (in vivo; rat, in vivo) was 1/6 and the “Number of dead/out of total in group” value (in vivo; [6]) was 3/6. For the same molecule, the “Number of dead/out of total in group” value (in vivo; [7]) was 6/6, the “myocardial necrosis area (sum of necrotic area, FIG. 1)” value [3] was “decreases the myocardial necrosis area” and the “Total number of lesions per group” value ([2]; treatment 1.5 mg/kg IV) was 60. The “Total number of lesions per group” value ([2]; treatment 50 mg/kg IV) was 16, the “achieved protection against chemotherapy-induced ulceration” value ([2]; DNase I 50 mg/kg compared to 1.5 mg/kg DNase I and 50 mg/kg cimetidine) was “significantly superior” and the “Number of lesion free animals (percent)” value ([2]; treatment 1.5 mg/kg IV) was 31.25%. For the same molecule, the “Median number of lesions” value ([2]; treatment 1.5 mg/kg IV) was 3.75 ± 1.53, the “Number of lesion free animals (percent)” value ([2]; treatment 50 mg/kg IV) was 75% and the “Median number of lesions” value ([2]; treatment 50 mg/kg IV) was 1.00 ± 0.69. The “Number of lesion free animals” value ([2]; treatment 1.5 mg/kg IV) was 5, the “Number of lesion free animals” value ([2]; treatment 50 mg/kg IV) was 12 and the “macroscopic appearance of stained stomach (FIG. 2A)” value ([2]; oral Etoposide 200 mg/kg and 5-FU 400 mg/kg followed by IV DNase I 50 mg/kg) was “does not have any macroscopic abnormalities”. The “neutropenia induced by cyclophosphamide (WBC, FIG. 3)” value ([1]; DNase I 25 mg/kg/day IV Days 2-5) was “ameliorates neutropenia”, the “early phase decline in WBC count (FIG. 3)” value [1] was “prevents the typical early phase decline in WBC count” and the “% Survival on Day 16” value (Erlich carcinoma cells; [8]) was 40%. For the same molecule, the “Change in Median Body Weight on Day 16” value (Erlich carcinoma cells; [8]) was “+2 g”, the “% Survival on Day 16” value (Erlich carcinoma cells; [9]) was 50% and the “Change in Median Body Weight on Day 16” value (Erlich carcinoma cells; [9]) was “+1.5 g”. The “% Survival on Day 16” value (Erlich carcinoma cells; [10]) was 80%, the “Change in Median Body Weight on Day 16” value (Erlich carcinoma cells; [10]) was 0 and the “% Survival on Day 16” value (Erlich carcinoma cells; [11]) was 100%. For the same molecule, the “Change in Median Body Weight on Day 16” value (Erlich carcinoma cells; [11]) was “+1.5 g”.
